Data: US20220048967A1 (published 2022)
Where a chain is given by its changes, count along the chain named. Numbered stars: 1 amine (or outer) side, 2 acyl side, 3 side chain; on linkers, the order of the positions; unused ones are H or OH. Square brackets hold non-standard residues; d marks the D form. Side chains are listed from the residue outwards. Ends that are not written are not given here. * marks the point of attachment. C20 diacid = O=C(O)CCCCCCCCCCCCCCCCCCC(=O)*; γGlu = O=C(O)[C@H](CCC(=O)[*:2])N[*:1]; αMeL = CC(C)C[C@](C)(N)C(=O)O; Dab = NCC[C@H](N)C(=O)O; Dap = NC[C@H](N)C(=O)O; AEEA = NCCOCCOCC(=O)O; Aib = CC(C)(N)C(=O)O

T1: human gastric inhibitory peptide receptor (GIPR) (human, UniProt P48546 22-466)
T1 sequence (looked up): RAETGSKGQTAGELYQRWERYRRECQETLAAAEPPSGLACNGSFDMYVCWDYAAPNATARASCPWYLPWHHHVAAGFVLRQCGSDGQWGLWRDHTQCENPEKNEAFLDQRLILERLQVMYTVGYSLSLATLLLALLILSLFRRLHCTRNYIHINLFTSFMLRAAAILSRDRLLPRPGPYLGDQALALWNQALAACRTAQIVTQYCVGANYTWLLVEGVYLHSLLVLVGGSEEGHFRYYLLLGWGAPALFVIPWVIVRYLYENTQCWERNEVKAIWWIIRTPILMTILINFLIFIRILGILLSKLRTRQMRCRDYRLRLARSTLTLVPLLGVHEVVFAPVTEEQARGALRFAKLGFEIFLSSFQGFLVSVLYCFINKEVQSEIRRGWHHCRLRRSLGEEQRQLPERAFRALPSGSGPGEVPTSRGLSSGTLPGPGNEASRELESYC

T2: human GIP receptor (human, UniProt P48546 22-466)
T2 sequence (looked up): T1 sequence (looked up)

B1: Example 347 (peptide)
peptide: [dY][Aib]EGTFTSDYSI[αMeL]LD[Dab]K([AEEA-AEEA-γGlu-C20 diacid])AQ[Aib]AFIEYLIAGGPSSGAPPPS-NH2
modifications: N-terminus assumed
SMILES: CC[C@H](C)[C@H](NC(=O)[C@H](CC(C)C)NC(=O)[C@H](Cc1ccc(O)cc1)NC(=O)[C@H](CCC(=O)O)NC(=O)[C@@H](NC(=O)[C@H](Cc1ccccc1)NC(=O)[C@H](C)NC(=O)C(C)(C)NC(=O)[C@H](CCC(N)=O)NC(=O)[C@H](C)NC(=O)[C@H](CCCCNC(=O)COCCOCCNC(=O)COCCOCCNC(=O)CC[C@H](NC(=O)CCCCCCCCCCCCCCCCCCC(=O)O)C(=O)O)NC(=O)[C@H](CCN)NC(=O)[C@H](CC(=O)O)NC(=O)[C@H](CC(C)C)NC(=O)[C@](C)(CC(C)C)NC(=O)[C@@H](NC(=O)[C@H](CO)NC(=O)[C@H](Cc1ccc(O)cc1)NC(=O)[C@H](CC(=O)O)NC(=O)[C@H](CO)NC(=O)[C@@H](NC(=O)[C@H](Cc1ccccc1)NC(=O)[C@@H](NC(=O)CNC(=O)[C@H](CCC(=O)O)NC(=O)C(C)(C)NC(=O)[C@H](N)Cc1ccc(O)cc1)[C@@H](C)O)[C@@H](C)O)[C@@H](C)CC)[C@@H](C)CC)C(=O)N[C@@H](C)C(=O)NCC(=O)NCC(=O)N1CCC[C@H]1C(=O)N[C@@H](CO)C(=O)N[C@@H](CO)C(=O)NCC(=O)N[C@@H](C)C(=O)N1CCC[C@H]1C(=O)N1CCC[C@H]1C(=O)N1CCC[C@H]1C(=O)N[C@@H](CO)C(N)=O
B2: Example 351 (peptide)
peptide: [dY][Aib]EGTFTSDYSI[αMeL]LD[Dap]K([AEEA-AEEA-γGlu-C20 diacid])AQ[Aib]EFIEYLIAGGPSSGAPPPS-NH2
modifications: N-terminus assumed
SMILES: CC[C@H](C)[C@H](NC(=O)[C@H](CC(C)C)NC(=O)[C@H](Cc1ccc(O)cc1)NC(=O)[C@H](CCC(=O)O)NC(=O)[C@@H](NC(=O)[C@H](Cc1ccccc1)NC(=O)[C@H](CCC(=O)O)NC(=O)C(C)(C)NC(=O)[C@H](CCC(N)=O)NC(=O)[C@H](C)NC(=O)[C@H](CCCCNC(=O)COCCOCCNC(=O)COCCOCCNC(=O)CC[C@H](NC(=O)CCCCCCCCCCCCCCCCCCC(=O)O)C(=O)O)NC(=O)[C@H](CN)NC(=O)[C@H](CC(=O)O)NC(=O)[C@H](CC(C)C)NC(=O)[C@](C)(CC(C)C)NC(=O)[C@@H](NC(=O)[C@H](CO)NC(=O)[C@H](Cc1ccc(O)cc1)NC(=O)[C@H](CC(=O)O)NC(=O)[C@H](CO)NC(=O)[C@@H](NC(=O)[C@H](Cc1ccccc1)NC(=O)[C@@H](NC(=O)CNC(=O)[C@H](CCC(=O)O)NC(=O)C(C)(C)NC(=O)[C@H](N)Cc1ccc(O)cc1)[C@@H](C)O)[C@@H](C)O)[C@@H](C)CC)[C@@H](C)CC)C(=O)N[C@@H](C)C(=O)NCC(=O)NCC(=O)N1CCC[C@H]1C(=O)N[C@@H](CO)C(=O)N[C@@H](CO)C(=O)NCC(=O)N[C@@H](C)C(=O)N1CCC[C@H]1C(=O)N1CCC[C@H]1C(=O)N1CCC[C@H]1C(=O)N[C@@H](CO)C(N)=O
B3: Example 349 (peptide)
peptide: XXEGTFTSDYSIXLDXKAQXEFIEYLIAGGPSSGAPPPS
modifications: D-Tyr1, Aib2, αMeL13, Orn16, (2-[2-(2-Amino-ethoxy)-ethoxy]-acetyl)2-(γ-Glu)-CO-(CH2)18-CO2H on K17, Aib20, C-terminal NH2
B4: Example 355 (peptide)
peptide: B3 peptide with E24X, A28E
modifications: D-Tyr1, Aib2, αMeL13, Orn16, (2-[2-(2-Amino-ethoxy)-ethoxy]-acetyl)2-(γ-Glu)-CO-(CH2)18-CO2H on K17, Aib20, D-Glu24, C-terminal NH2
B5: Example 356 (peptide)
peptide: B3 peptide with X16K, E21A, E24X, A28E
modifications: D-Tyr1, Aib2, αMeL13, (2-[2-(2-Amino-ethoxy)-ethoxy]-acetyl)2-(γ-Glu)-CO-(CH2)18-CO2H on K17, Aib20, D-Glu24, C-terminal NH2
B6: Example 353 (peptide)
peptide: B3 peptide with X16K, E24X, A28E
modifications: D-Tyr1, Aib2, αMeL13, (2-[2-(2-Amino-ethoxy)-ethoxy]-acetyl)2-(γ-Glu)-CO-(CH2)18-CO2H on K17, Aib20, D-Glu24, C-terminal NH2
B7: Example 357 (peptide)
peptide: B3 peptide with E21A, E24X, A28E
modifications: D-Tyr1, Aib2, αMeL13, Orn16, (2-[2-(2-Amino-ethoxy)-ethoxy]-acetyl)2-(γ-Glu)-CO-(CH2)18-CO2H on K17, Aib20, D-Glu24, C-terminal NH2
B8: Example 354 (peptide)
peptide: B3 peptide with E24X
modifications: D-Tyr1, Aib2, αMeL13, Orn16, (2-[2-(2-Amino-ethoxy)-ethoxy]-acetyl)2-(γ-Glu)-CO-(CH2)18-CO2H on K17, Aib20, D-Glu24, C-terminal NH2
B9: Example 352 (peptide)
peptide: B3 peptide with X16K, E21A, E24X
modifications: D-Tyr1, Aib2, αMeL13, (2-[2-(2-Amino-ethoxy)-ethoxy]-acetyl)2-(γ-Glu)-CO-(CH2)18-CO2H on K17, Aib20, D-Glu24, C-terminal NH2
B10: Example 358 (peptide)
peptide: B3 peptide with E21A, I23V
modifications: D-Tyr1, Aib2, αMeL13, Orn16, (2-[2-(2-Amino-ethoxy)-ethoxy]-acetyl)2-(γ-Glu)-CO-(CH2)18-CO2H on K17, Aib20, C-terminal NH2
B11: Example 350 (peptide)
peptide: [dY][Aib]EGTFTSDYSI[αMeL]LD[Dab]K([AEEA-AEEA-γGlu-C20 diacid])AQ[Aib]EFIEYLIAGGPSSGAPPPS-NH2
modifications: N-terminus assumed
SMILES: CC[C@H](C)[C@H](NC(=O)[C@H](CC(C)C)NC(=O)[C@H](Cc1ccc(O)cc1)NC(=O)[C@H](CCC(=O)O)NC(=O)[C@@H](NC(=O)[C@H](Cc1ccccc1)NC(=O)[C@H](CCC(=O)O)NC(=O)C(C)(C)NC(=O)[C@H](CCC(N)=O)NC(=O)[C@H](C)NC(=O)[C@H](CCCCNC(=O)COCCOCCNC(=O)COCCOCCNC(=O)CC[C@H](NC(=O)CCCCCCCCCCCCCCCCCCC(=O)O)C(=O)O)NC(=O)[C@H](CCN)NC(=O)[C@H](CC(=O)O)NC(=O)[C@H](CC(C)C)NC(=O)[C@](C)(CC(C)C)NC(=O)[C@@H](NC(=O)[C@H](CO)NC(=O)[C@H](Cc1ccc(O)cc1)NC(=O)[C@H](CC(=O)O)NC(=O)[C@H](CO)NC(=O)[C@@H](NC(=O)[C@H](Cc1ccccc1)NC(=O)[C@@H](NC(=O)CNC(=O)[C@H](CCC(=O)O)NC(=O)C(C)(C)NC(=O)[C@H](N)Cc1ccc(O)cc1)[C@@H](C)O)[C@@H](C)O)[C@@H](C)CC)[C@@H](C)CC)C(=O)N[C@@H](C)C(=O)NCC(=O)NCC(=O)N1CCC[C@H]1C(=O)N[C@@H](CO)C(=O)N[C@@H](CO)C(=O)NCC(=O)N[C@@H](C)C(=O)N1CCC[C@H]1C(=O)N1CCC[C@H]1C(=O)N1CCC[C@H]1C(=O)N[C@@H](CO)C(N)=O
B12: Example 348 (peptide)
peptide: [dY][Aib]EGTFTSDYSI[αMeL]LD[Dap]K([AEEA-AEEA-γGlu-C20 diacid])AQ[Aib]AFIEYLIAGGPSSGAPPPS-NH2
modifications: N-terminus assumed
SMILES: CC[C@H](C)[C@H](NC(=O)[C@H](CC(C)C)NC(=O)[C@H](Cc1ccc(O)cc1)NC(=O)[C@H](CCC(=O)O)NC(=O)[C@@H](NC(=O)[C@H](Cc1ccccc1)NC(=O)[C@H](C)NC(=O)C(C)(C)NC(=O)[C@H](CCC(N)=O)NC(=O)[C@H](C)NC(=O)[C@H](CCCCNC(=O)COCCOCCNC(=O)COCCOCCNC(=O)CC[C@H](NC(=O)CCCCCCCCCCCCCCCCCCC(=O)O)C(=O)O)NC(=O)[C@H](CN)NC(=O)[C@H](CC(=O)O)NC(=O)[C@H](CC(C)C)NC(=O)[C@](C)(CC(C)C)NC(=O)[C@@H](NC(=O)[C@H](CO)NC(=O)[C@H](Cc1ccc(O)cc1)NC(=O)[C@H](CC(=O)O)NC(=O)[C@H](CO)NC(=O)[C@@H](NC(=O)[C@H](Cc1ccccc1)NC(=O)[C@@H](NC(=O)CNC(=O)[C@H](CCC(=O)O)NC(=O)C(C)(C)NC(=O)[C@H](N)Cc1ccc(O)cc1)[C@@H](C)O)[C@@H](C)O)[C@@H](C)CC)[C@@H](C)CC)C(=O)N[C@@H](C)C(=O)NCC(=O)NCC(=O)N1CCC[C@H]1C(=O)N[C@@H](CO)C(=O)N[C@@H](CO)C(=O)NCC(=O)N[C@@H](C)C(=O)N1CCC[C@H]1C(=O)N1CCC[C@H]1C(=O)N1CCC[C@H]1C(=O)N[C@@H](CO)C(N)=O
B13: Example 3 (peptide)
peptide: B3 peptide with X1Y, F6X, E24X, A28E
modifications: Aib2; αMeF(2F)6; αMeL13; Orn16; K17((2-[2-(2-Amino-ethoxy)-ethoxy]-acetyl)2-(γ-Glu)-CO-(CH2)18-CO2H); Aib20; D-Glu24; C-terminal NH2
B14: Example 87 (peptide)
peptide: YXEGTFTSDYSILLDKKAQXAFIEYLIEGGPSSGAPPPS
modifications: αMePro2; K17((2-[2-(2-Amino-ethoxy)-ethoxy]-acetyl)2-(γ-Glu)-CO-(CH2)18-CO2H); Aib20; C-terminal NH2
B15: Example 111 (peptide)
peptide: B14 peptide
modifications: Aib2; K17((2-[2-(2-Amino-ethoxy)-ethoxy]-acetyl)-(Trx)-(γ-Glu)-CO-(CH2)18-CO2H); Aib20; C-terminal NH2
B16: Example 114 (peptide)
peptide: B14 peptide
modifications: Aib2; K17((2-[2-(2-Amino-ethoxy)-ethoxy]-acetyl)-(ϵK)-(ϵK)-CO-(CH2)18-CO2H); Aib20; C-terminal NH2
B17: Example 108 (peptide)
peptide: B14 peptide
modifications: Aib2; K17((2-[2-(2-Amino-ethoxy)-ethoxy]-acetyl)-AOC-(γ-Glu)-CO-(CH2)18-CO2H); Aib20; C-terminal NH2

target: T1, human gastric inhibitory peptide …; test: cell-based or functional assay

| Binder | hGIPR cAMP EC50 ratio | hGIPR cAMP Rel EC50 [nM] |
| --- | --- | --- |
| B1 | 0.872 | 0.0827 |
| B2 | 0.47 | 0.298 |
| B3 | 0.756 | 0.117 |
| B4 | 0.111 | 0.685 |
| B5 | 0.364 | 0.386 |
| B6 | 0.145 | 0.497 |
| B7 | 0.366 | 0.384 |
| B8 | 0.441 | 0.233 |
| B9 | 0.815 | 0.127 |
| B10 | 0.662 | 0.183 |
| B11 | 0.741 | 0.189 |
| B12 | 0.373 | 0.193 |

target: T2, human GIP receptor; test: cell-based or functional assay

| Binder | hGIPR cAMP Rel EC50 [nM] |
| --- | --- |
| B13 | 0.0411 |

target: human GLP-1 receptor (human, UniProt P43220 24-463); test: cell-based or functional assay

| Binder | hGLP1R cAMP Rel EC50 [nM] |
| --- | --- |
| B14 | 0.0801 |
| B15 | 0.308 |
| B16 | 0.267 |
| B17 | 0.294 |

target: human GLP-1 receptor (GLP-1R) (human, UniProt P43220 24-463); test: cell-based or functional assay

| Binder | hGLP1R cAMP EC50 ratio | hGLP1R cAMP Rel EC50 [nM] |
| --- | --- | --- |
| B1 | 0.245 | 0.102 |
| B2 | 0.22 | 0.149 |
| B3 | 0.214 | 0.121 |
| B4 | 0.0285 | 0.896 |
| B5 | 0.0647 | 0.506 |
| B6 | 0.0231 | 1.09 |
| B7 | 0.181 | 0.181 |
| B8 | 0.0517 | 0.54 |
| B9 | 0.201 | 0.142 |
| B10 | 0.26 | 0.117 |
| B11 | 0.307 | 0.107 |
| B12 | 0.224 | 0.113 |
